Experimental findings from article PMC4982613 are described below.

pKd: −log10 of the molar value.

What all share (experiment): EMSA
(A gel shift assay detects complexes by their altered migration in electrophoresis.)

Data set [1] concerns the target NEIL1 DA S207A;S306A (human) (UniProt Q96FI4). Conditions: tetrahydrofuran (abasic site analog) at position 14 of strand 1 (N), opposite C; EMSA: 10 pM 32P-DNA, 0-600 nM enzyme, 10% native PAGE, 2 h at 10 mA; binding buffer, salt, pH and temperature not stated; one-site specific binding fit (Prism …).
Data set [2] concerns the target NEIL1 S306A S306A (human) (UniProt Q96FI4). The following applies: upper bands may lower Kd; tetrahydrofuran (abasic site analog) at position 14 of strand 1 (N), opposite C; EMSA: 10 pM 32P-DNA, 0-600 nM enzyme, 10% native PAGE, 2 h at 10 mA; binding buffer, salt, pH and temperature not stated; one-site specific binding fit (Prism …).
The target in data set [3] is NEIL1 DE S207E;S306E (human) (UniProt Q96FI4). Conditions: tetrahydrofuran (abasic site analog) at position 14 of strand 1 (N), opposite C; EMSA: 10 pM 32P-DNA, 0-600 nM enzyme, 10% native PAGE, 2 h at 10 mA; binding buffer, salt, pH and temperature not stated; one-site specific binding fit (Prism …).
Chain of NEIL1 DE S207E;S306E (human) (Q96FI4 whole entry S207E/S306E): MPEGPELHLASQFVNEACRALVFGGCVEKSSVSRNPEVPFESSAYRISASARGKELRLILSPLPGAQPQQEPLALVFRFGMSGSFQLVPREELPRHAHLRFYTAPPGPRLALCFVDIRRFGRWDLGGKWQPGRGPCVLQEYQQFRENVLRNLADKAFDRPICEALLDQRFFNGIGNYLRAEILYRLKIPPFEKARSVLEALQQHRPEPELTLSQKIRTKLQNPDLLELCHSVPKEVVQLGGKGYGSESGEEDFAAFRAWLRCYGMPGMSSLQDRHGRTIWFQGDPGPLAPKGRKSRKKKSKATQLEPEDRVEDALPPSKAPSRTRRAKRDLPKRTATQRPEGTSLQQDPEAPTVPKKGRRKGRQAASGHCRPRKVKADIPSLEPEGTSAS
Data set [4] has as its target NEIL1 S207A S207A (human) (UniProt Q96FI4). The following applies: multiple complexes (C1+C2+C3) quantified; tetrahydrofuran (abasic site analog) at position 14 of strand 1 (N), opposite C; EMSA: 10 pM 32P-DNA, 0-600 nM enzyme, 10% native PAGE, 2 h at 10 mA; binding buffer, salt, pH and temperature not stated; one-site specific binding fit (Prism …).
Data set [5] addresses NEIL1 S207E S207E (human) (UniProt Q96FI4). Conditions: tetrahydrofuran (abasic site analog) at position 14 of strand 1 (N), opposite C; EMSA: 10 pM 32P-DNA, 0-600 nM enzyme, 10% native PAGE, 2 h at 10 mA; binding buffer, salt, pH and temperature not stated; one-site specific binding fit (Prism …).
Another data set concerns the target NEIL1 S61A S61A (human) (UniProt Q96FI4). Conditions: tetrahydrofuran (abasic site analog) at position 14 of strand 1 (N), opposite C; EMSA: 10 pM 32P-DNA, 0-600 nM enzyme, 10% native PAGE, 2 h at 10 mA; binding buffer, salt, pH and temperature not stated; one-site specific binding fit (Prism …).
In data set [6] the target is NEIL1 TA S207A;S306A;S61A (human) (UniProt Q96FI4). Conditions: tetrahydrofuran (abasic site analog) at position 14 of strand 1 (N), opposite C; EMSA: 10 pM 32P-DNA, 0-600 nM enzyme, 10% native PAGE, 2 h at 10 mA; binding buffer, salt, pH and temperature not stated; one-site specific binding fit (Prism …).
Chain of NEIL1 TA S207A;S306A;S61A (human) (Q96FI4 whole entry S61A/S207A/S306A): as the sequence (Q96FI4 whole entry S207E/S306E) above, with S61A, E207A, E306A counted along it
The target of a further data set is NEIL1 WT (human) (UniProt Q96FI4). The following applies: tetrahydrofuran (abasic site analog) at position 14 of strand 1 (N), opposite C; EMSA: 10 pM 32P-DNA, 0-600 nM enzyme, 10% native PAGE, 2 h at 10 mA; binding buffer, salt, pH and temperature not stated; one-site specific binding fit (Prism …).
Chain of NEIL1 WT (human) (Q96FI4 whole entry): as the sequence (Q96FI4 whole entry S207E/S306E) above, with E207S, E306S counted along it
In the next data set the target is NEIL1 S61E S61E (human) (UniProt Q96FI4). Conditions: tetrahydrofuran (abasic site analog) at position 14 of strand 1 (N), opposite C; EMSA: 10 pM 32P-DNA, 0-600 nM enzyme, 10% native PAGE, 2 h at 10 mA; binding buffer, salt, pH and temperature not stated; one-site specific binding fit (Prism …).
Chain of NEIL1 S61E S61E (human) (Q96FI4 whole entry S61E): as the sequence (Q96FI4 whole entry S207E/S306E) above, with S61E, E207S, E306S counted along it
Data set [7] deals with NEIL1 TE S207E;S306E;S61E (human) (UniProt Q96FI4). The following applies: upper bands may lower Kd; tetrahydrofuran (abasic site analog) at position 14 of strand 1 (N), opposite C; EMSA: 10 pM 32P-DNA, 0-600 nM enzyme, 10% native PAGE, 2 h at 10 mA; binding buffer, salt, pH and temperature not stated; one-site specific binding fit (Prism …).
Chain of NEIL1 TE S207E;S306E;S61E (human) (Q96FI4 whole entry S61E/S207E/S306E): as the sequence (Q96FI4 whole entry S207E/S306E) above, with S61E counted along it
For data set [8], the target named is NEIL1 S306E S306E (human) (UniProt Q96FI4). The following applies: tetrahydrofuran (abasic site analog) at position 14 of strand 1 (N), opposite C; EMSA: 10 pM 32P-DNA, 0-600 nM enzyme, 10% native PAGE, 2 h at 10 mA; binding buffer, salt, pH and temperature not stated; one-site specific binding fit (Prism …).
Chain of NEIL1 S306E S306E (human) (Q96FI4 whole entry S306E): as the sequence (Q96FI4 whole entry S207E/S306E) above, with E207S counted along it

Chain of NEIL1 S207E S207E (human) (Q96FI4 whole entry S207E): as the sequence (Q96FI4 whole entry S207E/S306E) above, with E306S counted along it
Chain of NEIL1 S306A S306A (human) (Q96FI4 whole entry S306A): as the sequence (Q96FI4 whole entry S207E/S306E) above, with E207S, E306A counted along it
Chain of NEIL1 S207A S207A (human) (Q96FI4 whole entry S207A): as the sequence (Q96FI4 whole entry S207E/S306E) above, with E207A, E306S counted along it
Chain of NEIL1 S61A S61A (human) (Q96FI4 whole entry S61A): as the sequence (Q96FI4 whole entry S207E/S306E) above, with S61A, E207S, E306S counted along it
Chain of NEIL1 DA S207A;S306A (human) (Q96FI4 whole entry S207A/S306A): as the sequence (Q96FI4 whole entry S207E/S306E) above, with E207A, E306A counted along it

By pKd is commonly meant the negative decadic logarithm of the Kd, by convention in mol/L. As to “TGTCAATAGCAAGNGGAGAAGTCAATCGTGAGTCT / AGACTCACGATTGACTTCTCCCCTTGCTATTGACA [35-mer Furan:C duplex]”, the negative logarithm of the Kd (pKd) was 7.97 in [1]; 8.64 in [2]; 7.82 in data set [3]; 8.49 in data set [4]; 8.35 in data set [5]; 7.79 with NEIL1 S61A S61A (human). For the same sequence, the pKd in data set [6] was 7.88; in the data set with NEIL1 WT (human), 7.64; with NEIL1 S61E S61E (human) it was 7.71; in data set [7] it was 8.89; in [8] it was 8.11.
